Data from the RNAGym collection of RNA variant scans (doi:10.7554/elife.90254).

B1: LINE1-full (parent)
chain: UACGUAGGUGGUUUUCCCCUGAUAGUGCUAAGGGGGCCUGGAAGUUUGGACUGGGCAGAGCUCAACACAGCGUGGCAAAGUGGCUGUGGCUAGACUGCCUCUCUGGAUUCCUCGUCACUCAGCAGGGCAUCUCUGAGAGAAAUGCC

Variants of: B1
Test: self-cleavage, relative activity (ratio to wild type); higher = more cleavage; in vitro, sequencing; the parent is a self-cleaving ribozyme

| Variant | self-cleavage |
| --- | --- |
| A69G C118U | 0.2 |
| U14C G127A | 1 |
| U14C G127U | 1.73 |
| A77G G137A | 2.66 |
| A6G U23G | 0.85 |
| A64G A124U | 0.29 |
| C17U | 1.09 |
| U100A C116U | 0.4 |
| G4A U130A | 0.55 |
| C95A U102C | 0.11 |
| A24C G139A | 1.45 |
| U5C A6U | 1.09 |
| A77U U96A | 0.06 |
| G83A U85G | 0.1 |
| U47C A138U | 1.52 |
| A79U U102C | 1.04 |
| G10A U14C | 1.45 |
| A50U U109A | 0.78 |
| G105A A121U | 1.46 |
| A92G A121U | 0.09 |
| A59G U132C | 0.11 |
| G34C A124U | 1.91 |
| U26C U85C | 0.27 |
| C68U A141G | 0.3 |

| Variant | self-cleavage |
| --- | --- |
| C110A G139C | 1.08 |
| U20G U109C | 0.93 |
| C99A A136G | 0.99 |
| U12C G27A | 0.87 |
| G72U U130A | 1.07 |
| U29G U112C | 1.36 |
| C113G U119A | 1.38 |
| U85C U102G | 0.22 |
| A42G C51U | 1.28 |
| A67G U91C | 0.16 |
| U85G U130C | 0.24 |
| U62A U100A | 0.05 |
| G49U U132A | 1.31 |
| G82A U108C | 2.48 |
| U46A G114A | 1.08 |
| G49C A141U | 1.55 |
| A94U A141G | 0.37 |
| A22G U85C | 0.27 |
| C37U U104C | 1.28 |
| U45A U87C | 0.24 |
| A30G G97A | 0.42 |
| U132C G144U | 1.43 |
| U15C U87A | 0.1 |
| U15C G144A | 1.04 |

| Variant | self-cleavage |
| --- | --- |
| U15A U85C | 0.03 |
| A79G G93U | 0.06 |
| A77U A107G | 1.29 |
| U5A A129U | 1.47 |
| A77U A117C | 1.76 |
| U5C G36C | 1.25 |
| C56G A92U | 0.04 |
| U26A U47A | 0.59 |
| U100C U132C | 1.67 |
| U12A U109A | 0.65 |
| U108A U132G | 2.7 |
| C90U U132C | 0.03 |
| U91A U143G | 0.56 |
| A65G C84G | 0.17 |
| A24U U108C | 1.33 |
| G27A G88A | 0.04 |
| G11A U62G | 0.03 |
| U26C A78G | 1.1 |
| A136G A141G | 1.03 |
| U5C U46A | 1.29 |
| G36A U143C | 1.57 |
| U39G U115A | 1.31 |
| G21C U132C | 1.27 |
| U1C U39A | 0.75 |

| Variant | self-cleavage |
| --- | --- |
| C95U C118A | 0.13 |
| A24G G93A | 0.13 |
| U12C U130A | 1.49 |
| A2G U47C | 0.84 |
| A43U U87A | 0.03 |
| A30G G70U | 0.11 |
| C113G G125U | 1.66 |
| U85C A94G | 0.07 |
| G75A U87G | 0.18 |
| G40A U52C | 1.23 |
| U46A U62C | 0.05 |
| C95A A138G | 0.09 |
| G4A U102G | 0.26 |
| A59G A117G | 0.18 |
| A67C U96C | 0.12 |
| G80A U104A | 1.86 |
| A42G C120A | 1.54 |
| A43G U62C | 0.1 |
| U73C A124U | 1.5 |
| U108C G135A | 1.6 |
| A22U A124G | 0.47 |
| U39C U115A | 1.05 |
| U1C U73G | 1.53 |
| G36U U62C | 0.02 |

| Variant | self-cleavage |
| --- | --- |
| A42G U108C | 1.55 |
| U96C U100C | 0.38 |
| U96G U108G | 0.16 |
| C16U U100C | 1.02 |
| A6G U91C | 0.51 |
| U47G A77G | 1.09 |
| U73A U130A | 1.83 |
| A57U G106U | 0.09 |
| C19U A140U | 0.82 |
| C56A U143A | 0.09 |
| A43U U104A | 0.98 |
| G82U U102C | 1.45 |
| U87G A124U | 0.17 |
| U87G A124G | 0.31 |
| A64U A107G | 0.45 |
| A50U U115C | 1.17 |
| G58A U119C | 0.06 |
| U1A U20C | 1.64 |
| U26A A31C | 1.04 |
| U96A U130A | 0.05 |
| U5C G8A | 0.24 |
| U39C U109A | 1.15 |
| U109C G114U | 1.33 |
| G27A A136G | 0.93 |

| Variant | self-cleavage |
| --- | --- |
| A24C | 1.62 |
| A50G A138G | 1.2 |
| A67C U115A | 0.04 |
| G53U U115C | 1.91 |
| A69G U108A | 0.07 |
| U12A U26C | 1.22 |
| A6U A77G | 1.51 |
| A77U G93A | 0.02 |
| U112C U115C | 1.29 |
| G32A A107G | 1.09 |
| U5A U115C | 0.5 |
| A31U U96C | 0.23 |
| U29G U47A | 1.41 |
| U115A U132G | 1.84 |
| U112A U143C | 0.83 |
| A65U A124G | 0.09 |
| C18A U109A | 1.71 |
| U13C G72A | 1.22 |
| A64G A138G | 0.21 |
| C18A G88U | 0.12 |
| G74A U112C | 0.66 |
| U100A U108G | 0 |
| A94G A124G | 0.06 |
| U20A A43G | 1.12 |

| Variant | self-cleavage |
| --- | --- |
| U1C G4A | 0.46 |
| A92C A124G | 0 |
| A69U G93A | 0.03 |
| U47G U85A | 0.05 |
| A6G G11A | 2.36 |
| A6G A121G | 1.14 |
| C18U U81C | 0.84 |
| A65G U91C | 0 |
| U20C C101U | 1.11 |
| U85C G125C | 0.29 |
| G40A | 1.16 |
| A31U G86A | 0.05 |
| A78U U108C | 2.87 |
| G11U U20C | 0.34 |
| C71U U81C | 0.74 |
| U9A U108C | 0.9 |
| C76A U143A | 1.65 |
| A31U A59G | 0.14 |
| U9A G53A | 1.53 |
| U15A C101G | 0.84 |
| U46C U87C | 0.43 |
| U45A U100C | 1.05 |
| A22C A50U | 1.02 |
